Results published in patent US20230133118A1, “COMPOSITIONS AND METHODS FOR TREATING CANCER” (Adagene AG, priority 2020, published 2023).
“And” between values parts separate entries of the source, which are not always exact repeats. Equal entries are not always repeated. Where two headings read alike, the source gives them in different places.

Conditions: for Any DLTs: first 2 cycles
Experimental: The phase 1a dose escalation study in US (ClinicalTrials.gov Identifier: NCT03707093) included accelerated titration (0.03, 0.1 and 0.3 mg/kg) and conventional dose escalation (1, 3, and 10 mg/kg). The phase 1a dose escalation study in China (ClinicalTrials.gov Identifier: NCT03802955) included accelerated titration (0.1 mg/kg) and conventional dose escalation (0.5, 1.5, 3, 5, and 10 mg/kg). […] Patients with advanced or metastatic solid tumors and/or non-Hodgkin lymphoma who were refractory or relapsed and exhausted all available therapies were enrolled and received treatment until disease progression, intolerable toxicity, withdrawal with consent, or for a maximum of 24 months.
Dose expansion studies were conducted for dose levels that were proven tolerable in Phase 1a and with evidence of clinical or biological activity. The dose levels studied in Phase 1 b were 3 mg/kg and 5 mg/kg.

ADG106: fully human agonistic anti-CD137 monoclonal IgG4 antibody; heavy chain SEQ ID NO: 10, light chain SEQ ID NO: 11
>=G3 adverse events (0.03 mg/kg N=1): 1 (100) n (%)
Any Drug Related TEAEs (0.03 mg/kg N=1): 1 (100) n (%)
Any SAE (0.03 mg/kg N=1): 0 n (%)
Any TEAEs Leading to Study Drug Discontinuation (0.03 mg/kg N=1): 0 n (%)
Any TEAEs leading to Study Drug Dose Reduction or Interruption (0.03 mg/kg N=1): 1 (100) n (%)
Any TEAEs with Outcome of Death (0.03 mg/kg N=1): 0 n (%)
Drug Related SAE (0.03 mg/kg N=1): 0 n (%)
SAE leading to Drug discontinuation (0.03 mg/kg N=1): 0 n (%)
Any DLTs (0.03 mg/kg N=1): 0 n (%)
>=G3 adverse events (0.1 mg/kg N=2): 0 n (%)
Any Drug Related TEAEs (0.1 mg/kg N=2): 2 (100) n (%)
Any SAE (0.1 mg/kg N=2): 0 n (%)
Any TEAEs Leading to Study Drug Discontinuation (0.1 mg/kg N=2): 0 n (%)
Any TEAEs leading to Study Drug Dose Reduction or Interruption (0.1 mg/kg N=2): 0 n (%)
Any TEAEs with Outcome of Death (0.1 mg/kg N=2): 0 n (%)
Drug Related SAE (0.1 mg/kg N=2): 0 n (%)
SAE leading to Drug discontinuation (0.1 mg/kg N=2): 0 n (%)
Any DLTs (0.1 mg/kg N=2): 0 n (%)
>=G3 adverse events (0.3 mg/kg N=1): 1 (100) n (%)
Any Drug Related TEAEs (0.3 mg/kg N=1): 1 (100) n (%)
Any SAE (0.3 mg/kg N=1): 0 n (%)
Any TEAEs Leading to Study Drug Discontinuation (0.3 mg/kg N=1): 0 n (%)
Any TEAEs leading to Study Drug Dose Reduction or Interruption (0.3 mg/kg N=1): 0 n (%)
Any TEAEs with Outcome of Death (0.3 mg/kg N=1): 0 n (%)
Drug Related SAE (0.3 mg/kg N=1): 0 n (%)
SAE leading to Drug discontinuation (0.3 mg/kg N=1): 0 n (%)
Any DLTs (0.3 mg/kg N=1): 0 n (%)
>=G3 adverse events (0.5 mg/kg N=3): 0 n (%)
Any Drug Related TEAEs (0.5 mg/kg N=3): 2 (67) n (%)
Any SAE (0.5 mg/kg N=3): 0 n (%)
Any TEAEs Leading to Study Drug Discontinuation (0.5 mg/kg N=3): 0 n (%)
Any TEAEs leading to Study Drug Dose Reduction or Interruption (0.5 mg/kg N=3): 0 n (%)
Any TEAEs with Outcome of Death (0.5 mg/kg N=3): 0 n (%)
Drug Related SAE (0.5 mg/kg N=3): 0 n (%)
SAE leading to Drug discontinuation (0.5 mg/kg N=3): 0 n (%)
Any DLTs (0.5 mg/kg N=3): 0 n (%)
>=G3 adverse events (1 mg/kg N=4): 3 (75) n (%)
Any Drug Related TEAEs (1 mg/kg N=4): 4 (100) n (%)
Any SAE (1 mg/kg N=4): 1 (25) n (%)
Any TEAEs Leading to Study Drug Discontinuation (1 mg/kg N=4): 1 (25) n (%)
Any TEAEs leading to Study Drug Dose Reduction or Interruption (1 mg/kg N=4): 0 n (%)
Any TEAEs with Outcome of Death (1 mg/kg N=4): 1 (25) n (%)
Drug Related SAE (1 mg/kg N=4): 0 n (%)
SAE leading to Drug discontinuation (1 mg/kg N=4): 0 n (%)
Any DLTs (1 mg/kg N=4): 0 n (%)
>=G3 adverse events (1.5 mg/kg N=5): 0 n (%)
Any Drug Related TEAEs (1.5 mg/kg N=5): 2 (40) n (%)
Any SAE (1.5 mg/kg N=5): 1 (20) n (%)
Any TEAEs Leading to Study Drug Discontinuation (1.5 mg/kg N=5): 0 n (%)
Any TEAEs leading to Study Drug Dose Reduction or Interruption (1.5 mg/kg N=5): 0 n (%)
Any TEAEs with Outcome of Death (1.5 mg/kg N=5): 0 n (%)
Drug Related SAE (1.5 mg/kg N=5): 0 n (%)
SAE leading to Drug discontinuation (1.5 mg/kg N=5): 0 n (%)
Any DLTs (1.5 mg/kg N=5): 0 n (%)
>=G3 adverse events (3 mg/kg N=12): 4 n (%)
Any Drug Related TEAEs (3 mg/kg N=12): 6 n (%)
Any SAE (3 mg/kg N=12): 3 n (%)
Any TEAEs Leading to Study Drug Discontinuation (3 mg/kg N=12): 1 n (%)
Any TEAEs leading to Study Drug Dose Reduction or Interruption (3 mg/kg N=12): 0 n (%)
Any TEAEs with Outcome of Death (3 mg/kg N=12): 1 n (%)
Drug Related SAE (3 mg/kg N=12): 0 n (%)
SAE leading to Drug discontinuation (3 mg/kg N=12): 0 n (%)
Any DLTs (3 mg/kg N=12): 0 n (%)
>=G3 adverse events (5 mg/kg N=7): 2 (39) n (%)
Any Drug Related TEAEs (5 mg/kg N=7): 4 (57) n (%)
Any SAE (5 mg/kg N=7): 3 (43) n (%)
Any TEAEs Leading to Study Drug Discontinuation (5 mg/kg N=7): 1 (14) n (%)
Any TEAEs leading to Study Drug Dose Reduction or Interruption (5 mg/kg N=7): 0 n (%)
Any TEAEs with Outcome of Death (5 mg/kg N=7): 0 n (%)
Drug Related SAE (5 mg/kg N=7): 2 (29) n (%)
SAE leading to Drug discontinuation (5 mg/kg N=7): 1 (14) n (%)
Any DLTs (5 mg/kg N=7): 1 n (%) and 1 (14) n (%)
>=G3 adverse events (10 mg/kg N=5): 4 (80) n (%)
Any Drug Related TEAEs (10 mg/kg N=5): 4 (80) n (%)
Any SAE (10 mg/kg N=5): 2 (40) n (%)
Any TEAEs Leading to Study Drug Discontinuation (10 mg/kg N=5): 2 (40) n (%)
Any TEAEs leading to Study Drug Dose Reduction or Interruption (10 mg/kg N=5): 0 n (%)
Any TEAEs with Outcome of Death (10 mg/kg N=5): 0 n (%)
Drug Related SAE (10 mg/kg N=5): 2 (40) n (%)
SAE leading to Drug discontinuation (10 mg/kg N=5): 2 (40) n (%)
SAEs related to the study treatment (China update): 7
DLT observed (China update Nov. 30, 2020, 18 dose escalation patients, Grade 4 neutrophil count decreased at 10 mg/kg): 1
TEAE C-reactive protein increase (China update, 57 patients): 35%
TEAE anemia (China update, 57 patients): 46%
TEAE aspartate aminotransferase increase (China update, 57 patients): 32%
TEAE asthenia (China update, 57 patients): 30%
TEAE blood present in urine (China update, 57 patients): 21%
TEAE constipation (China update, 57 patients): 25%
TEAE cough (China update, 57 patients): 23%
TEAE hypoalbuminaemia (China update, 57 patients): 30%
TEAE hypochloraemia (China update, 57 patients): 23%
TEAE hyponatraemia (China update, 57 patients): 30%
TEAE platelet count increase (China update, 57 patients): 21%
TEAE proteinuria (China update, 57 patients): 39%
TEAE pruritus (China update, 57 patients): 21%
TEAE rash (China update, 57 patients): 25%
TEAE white blood cell count decrease (China update, 57 patients): 26%
